Assay results published in article PMC7705225, “Hfq-Assisted RsmA Regulation Is Central to Pseudomonas aeruginosa Biofilm Polysaccharide PEL Expression”.

Biological target: RsmA (Pseudomonas aeruginosa PAO1, UniProt O69078 1-61)
Assay: EMSA; without Hfq
Conditions: protein: recombinant; tags: His6 (C-terminal, RsmA-His6); chain copies: 2; label: none (SYBR Gold stain)

Chain of RsmA (O69078 whole entry): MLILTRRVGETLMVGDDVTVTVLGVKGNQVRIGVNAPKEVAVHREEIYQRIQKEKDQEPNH

B1: truncated vfr RNA (structured_RNA)
RNA: CUUUCGGGACUCGGGCAUGGUAGCUAUUACCCACACACCCAAACUCAAACACCUAGACAAGCUGCUCGCACACUGUCACCGCCGCCGCUACACCGCAAAGAGCACCAUCAUCUAUGCCGGCGAUCGCUGCGAU
binding result: binds
